Data from the DeepSol protein solubility set.

Assay: soluble on expression in E. coli; label from the status in PepcDB or PDB records

Sequence | soluble on expression in E. coli
MIETTAALAEACTELAKSEFITIDTEFLRETTFWPELCLVQMASPTLEVLVDPLAKGIDLTPMFELMANPNVVKVFHAARQDIEIIYHLGGLIPHPIFDTQVAAMVCGFGDSISYDQLVQKIKNVQIDKSSRFTDWSRRPLTEKQLDYALADVTHLRDVYLSLKAQLEREGRSLWLTEEMNILESRDTYDMHPDDAWLRLKSRLRKPTELAILKFVAAWREREARSRNVPRSRVLKDDGIFEIAQQQPKDAEALSRLRTIPKGWERSASGTAIIETVNAALALPKEEMPKAPRHSHAPEGSGAAVELLKVLLKLTADKHGVAAKVIANSDDLDKIASEGENATVAALTGWRRELFGDVALKLINGEVALRFAGKKVEAVEVEAAASES | not soluble
MILAQKQKQVIRLNLISTWRKLISSTKIPNWLSQTKIQSKYQTRGIYPGSFFQKTIFRKDGSMSVQRTLQKYMDDWKRISHFDFCLLQEDNSILVTTCDRRLPAESKLEEFRNSTALCLSNATCCLYKITEKNEQLLLIVWGSEDSVSTIGELAVCQIESILESYAEKNDKNAFMQKLLLGDYTDVEAFNRARKLHISSSARRAVFLVETRQSKDEHALATIKNIFSARTHDFITSIDNRGIIVVRELTSTETYDDLENIAHMLVDMLGTEAMTQAWVAYSNTANDLKDLSNAYKEARTALEIGKIFYAERNVFGYRTLGIGRLLYQLPVSICEMFIQEIFGDESLDSIDGETLAIIRTFFENNLNLSETSRQLYVHRNTLVYRFEKIQKRFGLDLRTFEDAMTFKLAMLVSRYLRYQNRT | not soluble
MGSDKIHHHHHHMQKRHKDRQCYFNELANTSRSFYIDYVKQFISLSPSTHILEIGCGEGGNLLPFAELGCKVTGIDRAASRIHQAETFFTASGYKGEFTTTDFFNFSSASRYQLILIHDVIEHISNKEEFFRCLSPLLAKRGIIFWGFPSWQMPFGGHQQICHNRFVSSLPFIHLCPGILYRFLLRCFHETPSCIEELSDIKRCRMTIDTFEQLAEKYGYEITDRQLWFINPHYQQKFHLRPRKLYPVLAQLKYIRNYFSTSCFYITRHRELHD | not soluble
GPGSMHPGLPRAFPDTEWQTVADIFRRRAPVSFLAPNSSASATADPAAAAEAWVQQEIGYYEANYTTVEDLNVCVTTFNVGCKKPVLPLTSLACLTSGGGGADGAPVRPTDLIVVGLQEVDMSATALFKQETEASAPWVAGLNAAIGASRCSSTAASSSSGAGASPYYAFPPKQLVGLLLCVFIRRPLLSAVSESSTATVATGALGSMGNKGAVGFHLVLHRTSICIITAHLAAGQSNVSKRNEDINTILKSMDFNAARRAEMQISASASMPMDESVFLELHPRDHDIIIVAGDLNYRLRLPYETAVHLANAGQFSELLQYDELATEMKSPHTPWLNFINFTPTHMPTYRFDIGTDAYDTSEKRRVPSYTDRICMWSRRKSMESRVRLDRLSALMEVRSSDHKPVQALARIPISVEVPAQKAQVISSLREKVAAVGLAQASSAKISLSTSKVNFQAQSFHHCGAQETVTVQNSGDCVAVVRVVRQREGDYSEGTWLRATPLELAILPGESQDVVIETAIDPRCMTWLAAWSPYQGRGRVSLTSVLLFCCRNGPVQAVECQCLLSPSVFGNGLDSIALLQDKPCVEAYAQKADFEEVVRQVRPHVPKELWYLAHVIAQHPREGGLFTRSTDKDVCCRIMELLDTKNAPLPAGTDVHCAAECLLAFLKNLLEPVVPYAQYTTALAAGRAKGKAPLQFLRQLPTMHANVWIYVMSLLNYLLRPVHSCDNELDANFLAHIFSAVLIVRPTNAQGAIPARLQQGGGVDQQVRQQLQQESDDALALVAYFLSTPPSMLAGVE | not soluble
GWRAKVAGIDPKGSDTHYSEGSSYTFYPYGQAVLLPNIFAHRDVGNTACPGRYGYAQMDNIRNIAKQKYDSIRSGSGATAPAAPSTPSKPAPAPAAPAAPSAPAAPAGTNPIGLLSQGSTPANAGSLVGLAVAAATSLGLIGNLNNIGDVPVIGGLKLSQLQPIIGKIVELLGNNDISRVWRDVNSFAGAALGNARSPIAHYASATGTPIDYALFDNGIVISNPETGTNALWGTIGDLWAQQGFEAGPLGLPTSSVFEVDGLQRVNFQHGYITFNPTTSAVDIQVQ | not soluble
MSPGERFLDWLKRLQGQKAWTAARAAFRRSLAFPPGAYPRAMPYVEPFLAKGDWRQEEREAHYLVAALYALKDGDHQVGRTLARALWEKAQGSASVEKRFLALLEADRDQIAFRLRQAVALVEGGIDFARLLDDLLRWFSPERHVQARWAREYYGAGASEEEKKKEVEA | soluble
MGSDKIHHHHHHMERMALHFEILENGKVKCLLCPHECVLDNGQIGLCGVRKNKNGSLVSLNYGEVTAIAMDPIEKKPLFHFNPGEQIFSVGTFGCNFKCGFCQNWEISQAKPETKRVTPEQLVKIAQMNRNSKGIAFTYNEPLVWYEFVLDTSRVAVREGMYCVLVTNGFINEEPLELLFQSVHAMNIDLKGFNRDFYREIGGDLDVVLRNIEKVYNAGIHVELTTLIIPGKNDDKEDLRREFEWIADLDKDIPLHISRYFPNYKYTIPPTPIEELIEIYEMAREYLNFVYLGNVWDERYESTFCPDCGNLVIRRQGYEVEKVGLDEEGKCTKCGRQIATIIG | not soluble
MGSDKIHHHHHHMATPADKLAESLAVLKTLRDQGRKALRSEDMGRTHRERLMRNGFIKEVMKGWYIPSRPDEPAGESTSWYASFWVFCASYLESRFGDEWCVSPEQSIHLHTGNWSVPKQLLIRSPKGGNKPTGLLHGTSILDVRLELPPASDTEIKEGMRIYNLPAALVGCSQTQFSAHPTEMRTALTMMQDASELLGRLLAGGHSKIAGWLAGACRSIGRKQIADDILGAMRAAGYTVNENNPFKDQAQIIFSPRETSPYVNRMRMNWASMREDVLHSFPAAPGLPADSAKYLKQVEAVYVNDAYNSLSIEGYKVSAALIEKVRSGNWNPDSNKDDQDHRNALAARGYWQAFQKVRESIGKVLSQENAGTVAESDHAQWYRELFGPSVTAGILKAADLAGYRNSPVYIRRSMHTPPGKEAVRELMPVLFELLQQENEAAVRVVLGHFMFVYIHPYIDGNGRIGRFLMNLMSASGGYSWIVIPLEQRNDYMAALESASVEGDIKPFSTLLANLVSTG | not soluble
MKPALHAIDATLPAPPTYTPAGNECALFEHAWKRRVPLLLKGPTGCGKTRFVAHMAARLGLPLFTVSCHDDLTAADLTGRYLLKGGETVWVDGPLTRAVRQGGICYLDEVVEARKDVAVVLHPLADDRRVLPLERTGEELQAPPHFMLVVSYNPGYQSLLKALKPSTRQRFAAIEFGFLAPEQEIAVVAAESGLPSERVAPLVALAGRLRKLKGHDLEEGVSTRLLVYCASLISEGLPVRDAVLAGLIEPLTDDADVKAALIEVAGVVIGLEHHHHHH | soluble
MSLRITTLEELLEALDELFDDGSDLTRRGAQDPWERVFSQPGHPLASDLPDACLVDWTRQGLLPSGDGLTALDLGCGLGRNARWLARQGYAVTGLDLSPYAVGQARERTPGPDIRYLEGDVLRDPIPGGPFDVVYDSGCFHHLPPHRRLSYLHTLGQVLRPGGWFGLCTFAWGRMGSAKSDLELLRQGQLEGGVGYTLDDLREMFGGLDFVTGSLLSELEPASEPVFQMDFLQAALFRREGHHHHHH | soluble
MKRDQLKSLLLGAILLAGITLPAKAQIGEQRHNFAIGINGGANYSTVSFQPTIKQNGLLGITGGVTARYISEKYFAMICGAQLELNFSQRGWDEKFDPEQGFSSEDSYVRTMNYLEIPFLAHLAFGKDKGVQFFVNLGPQIGLLLNESEKRKGTWETANRAPNEQYGKWVENKFDYGIVGGGGIEVRTKAGNFLLEGRYYFGLADFYNSTKKDYFSRSANSTITAKITYLFDIKK | not soluble
MNKPNLENMNPNFPSSPPIDIISPFFPNILVLNSSSSIANAGVTMTAFTAASPNPITKLMLNLFREGNIESESARKPAIVVNAAPSNAFPVSEIASSAASSGDLPLFLSS | soluble
MGSDKIHHHHHHMENILDKLGIELNEQTRLTNDSKFTFNCHSGLSCFNTCCSNLDIVLTPYDILRMKNRLGLTSVEFISEYTEPVIQKESKLPFLKLKLGDEGKCRFVAAEGCTVYGDRPAACRYYPLGFGIYKNEEAGDDFYFLIREDHCKGFEEEREWTVGEWRKNQGVDEYDDKNRVWMEVILNKKLYSPELEPDEKSLKMFFMASYDLDAFRDFVFESRFLDVFDIEEERLEMIKNDEAELMLFAHQWLLFALFKKPTMNLKQV | not soluble
MGSDKIHHHHHHMNSLLASIDSSRAMPVLEDITQHEISALKTRFNLADAHTHQDQSDTQRMIVASLPELWYQAQNQTQYQSEQAFIRAFFTFHGQHHALKRHDEIYLVYAASIAMHITATYLRKNTLSVGLIEPCFDNLHDLLKHMEVPMSPLDESLFSSSSEVYANLQKAAIGLDAIFLVDPNNPTGSSLFADGPDTFVEVARYCRDYNKLLILDFCFASFFMAAGRERVDAYAILDDIGTRYLIMEDTGKTWPLQDTKCATLMASKDINAEIYSIVTSVLLNVSPFILNVVTRYIEDSNDDDFNSVRSVLEVNRRRARDCLEGKVLKYMQPMIDTSVAWFEILPAGIDADELQTYLLQWDVYVLPGKYFYWSQPEKGQRYIRLALARKPEEFDAAVQMIAHALEHFHV | not soluble
MAKDIRVLLYYLYTPIENAEQFAADHLAFCKSIGLKGRILVADEGINGTVSGDYETTQKYMDYVHSLPGMEELWFKIDEENEQAFKKMFVRYKKEIVHLGLEDNDFDNDINPLETTGAYLSPKEFKEALLDKDTVVLDTRNDYEYDLGHFRGAIRPDIRNFRELPQWVRDNKEKFMDKRVVVYCTGGVRCEKFSGWMVREGYKDVGQLHGGIATYGKDPEVQGELWDGKMYVFDERIAVDVNHVNPTIVGKDWFDGTPCERYVNCGNPFCNRRILTSEENEDKYLRGCSHECRVHPRNRYVSKNELTQAEVIERLAAIGESLDQAATVLEHHHHHH | soluble
MGSDKIHHHHHHMASFVDKLHPLVLNIGLAIHNADWNWKNVNSPFTRLYYVTEGTAQVLISGKTQILKANHMYFIPAFTKHSYICNSYFSHYYLHIYEEHQSDSNLLDNWDFPIEIPAVEIDLALFQRLCTINPHMTLQKSDPTSYDNNYTLMQNLLKNKQRTLSDKIESRGIVYQLLARFLKRAQVKMELKDNRIEEAIHYIRKHINETIDLRVLAENSCLSKDHFIRLFKKETGDTPLKYINRKKIEKAQLILITDDMSIKNVALNLAFEDYSYFNRLFKKITGITPQEYRTSYHS | not soluble
MCGRFTLTLPPDLLAEIIGEIEAARVQPRYNIAPAQEVAVVRQDAGGRRHLDYLRWGLIPPWAKDASVGNHMINARSETVAEKPAFRHAFRSRRCLVLASGFYEWKAEGNRKQPLYIHMKDGGPMVFAGLWESWKSPEGAIVESCTILTTYSNSLIRPLHDRMPVILGRSDWDIWLSREATSEELTPLFQPYPSDLLAMYPVGTGVNSPRNDSPDLLEPLNEPLEHHHHHH | not soluble
MSLIITRTPLRITFVGGGTDLPDFYTRHGGSVVSAAINRYIYIIVNKKFDSKIRVSYSRTEIVDKVDEIRHPTVREALRLLELDGGIEILSISDVPSQGTGLGSSSSFLVGLLNALHAYKSEYVSNETLAEEAVKIEREILREAGGKQDQYMAAYGGIDLLQFFQNGEVRVKPIPLNTERLKYLRDNTALLYTGVERSSTDIHTDQISKIDDHIQEYLEMKKLAEEFAVKLYASDIKELGEIMDRNWMLKRKLSGKITNDLIDRLYIRAKELGAYGGKLIGAGGGGFLLFFIDHNKRENLKELGLRQMDYDFDFEGSRIIYYQDREGHHHHHH | soluble
